These results are taken from patent US20170275639A1.

The target of the assay is WNV (strain New York 1999), infectious virus (West Nile virus, strain New York 1999) (UniProt Q9Q6P4). The experiment in a line: cell-based or functional assay.

With “Tetra pHu-E16 (tetravalent molecule assembled from pHu-E16scFv-CH^1-3 and pHu-E16scFv-CL) (antibody)”, the EC50, focus reduction neutralization assay (Vero cells) came out at 3 ng/mL.
